Results published in patent US20260116987A1 (Gilead, published 2026).
Residue numbers refer to the chain shown, from its start.

T1: Human CCR4 expressed on CHO-S cells (human, UniProt P51679 1-360)
T1 construct: whole, on cells; also called CCR4-expressing CHO-S cells
T1 sequence (looked up): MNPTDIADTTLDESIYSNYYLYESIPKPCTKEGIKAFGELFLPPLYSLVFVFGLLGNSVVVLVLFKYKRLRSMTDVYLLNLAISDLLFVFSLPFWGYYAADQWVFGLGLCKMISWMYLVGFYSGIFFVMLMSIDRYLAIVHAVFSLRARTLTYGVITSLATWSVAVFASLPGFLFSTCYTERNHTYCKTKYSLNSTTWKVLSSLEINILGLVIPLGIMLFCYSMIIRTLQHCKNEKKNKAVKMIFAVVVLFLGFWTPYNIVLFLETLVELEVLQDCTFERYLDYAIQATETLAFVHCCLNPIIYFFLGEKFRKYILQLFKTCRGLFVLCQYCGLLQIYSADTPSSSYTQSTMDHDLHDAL

B1: 7B16-H2.001 (CDR H2 swapped mutant of 7-B16) (antibody, V domains shown)
VH: EVQLVESGGGLVQPKGSLKLSCAASGFTFNTYAMNWVRQAPGKGLEWVARIRSKANSYATAYAASVKDRFTISRDDSQSMLYLQMNNLKTEDTAMYYCVRGLLRYRFFDVWGAGTTVTVSS
VL: DIVMTQAEPSVPVTPGESISISCRSSKSLLHSNGNTYLYWFLQRPGQSPQLLIYRMSNLASGVPDRFSGSGSGTAFTLRISRVEAEDVGVYYCMQHLEYPFTFGGGTKLEIKR
notes: also called CDR swapped variant H2
B2: Humanized 7-B16.001 (antibody, human IgG1, kappa, V domains shown)
VH: EVQLVESGGGLVQPGGSLKLSCAASGFTFNTYAMNWVRQASGKGLEWVGRIRSKSNNYATYYADSVKDRFTISRDDSKNTAYLQMNSLKTEDTAVYYCVRGLLRYRFFDVWGQGTTVTVSS
VL: B1 VL with A7S, E8P, P9L, V11L, S18P, I19A, R44K, A75D, R79K, L109V
notes: Humanized
B3: 7B16.002 (CDR H3 alanine scan variant of 7-B16) (antibody, human IgG1, kappa, V domains shown)
VH: B1 VH with A55S, S57N, A61Y, A64D, V99A
VL: B1 VL
B4: 7B16-H3C3.001 (CDR H3 combo mutant of 7-B16) (antibody, V domains shown)
VH: B1 VH with A55S, S57N, A61Y, A64D, Y105A, V110A
VL: B1 VL
B5: 7B16.004 (CDR H3 alanine scan variant of 7-B16) (antibody, human IgG1, kappa, V domains shown)
VH: B1 VH with A55S, S57N, A61Y, A64D, G101A
VL: B1 VL
B6: 7B16.008 (CDR H3 alanine scan variant of 7-B16) (antibody, human IgG1, kappa, V domains shown)
VH: B1 VH with A55S, S57N, A61Y, A64D, Y105A
VL: B1 VL
B7: 7B16-H3C1.001 (CDR H3 combo mutant of 7-B16) (antibody, V domains shown)
VH: B1 VH with A55S, S57N, A61Y, A64D, V99A, Y105A
VL: B1 VL
B8: 7B16.010 (CDR H3 alanine scan variant of 7-B16) (antibody, human IgG1, kappa, V domains shown)
VH: B1 VH with A55S, S57N, A61Y, A64D, F107A
VL: B1 VL
B9: 7B16.013 (CDR H3 alanine scan variant of 7-B16) (antibody, human IgG1, kappa, V domains shown)
VH: B1 VH with A55S, S57N, A61Y, A64D, V110A
VL: B1 VL
B10: 7B16.005 (CDR H3 alanine scan variant of 7-B16) (antibody, human IgG1, kappa, V domains shown)
VH: B1 VH with A55S, S57N, A61Y, A64D, L102A
VL: B1 VL
B11: 7B16.006 (CDR H3 alanine scan variant of 7-B16) (antibody, human IgG1, kappa, V domains shown)
VH: B1 VH with A55S, S57N, A61Y, A64D, L103A
VL: B1 VL
B12: 7B16.009 (CDR H3 alanine scan variant of 7-B16) (antibody, human IgG1, kappa, V domains shown)
VH: B1 VH with A55S, S57N, A61Y, A64D, R106A
VL: B1 VL
B13: Humanized 7-B16.033 (antibody, human IgG1, kappa, V domains shown)
VH: B2 VH with G16R, K19R, A23T, N30A, S41P, G49A, N79S, T80I, A81L
VL: B1 VL with A7S, E8P, P9L, V11L, S18P, I19A, R44K, A75D, R79K, L109V
notes: Humanized
B14: 7B16-L2.001 (CDR L2 swapped mutant of 7-B16) (antibody, V domains shown)
VH: B1 VH with A55S, S57N, A61Y, A64D
VL: B1 VL with R55L, M56G, L59R
notes: also called CDR swapped variant L2
B15: 7B16-H3C4.001 (CDR H3 combo mutant of 7-B16) (antibody, V domains shown)
VH: B1 VH with A55S, S57N, A61Y, A64D, V99A, Y105A, V110A
VL: B1 VL
B16: 7B16-H3C2.001 (CDR H3 combo mutant of 7-B16) (antibody, V domains shown)
VH: B1 VH with A55S, S57N, A61Y, A64D, V99A, V110A
VL: B1 VL
B17: Humanized 1-K17.015 (antibody, human IgG1, kappa, V domains shown)
VH: EVQLVQSGAEVKKPGASVKVSCKASGYTFTSYNMHWVRQAPGQRLEWIGAIYPGQGDTSYNQKFKGRATLTADKSASTAYMELSSLRSEDTAVYYCARKGGTPFAYWGQGTLVTVSS
VL: DVVMTQSPLSLPVTLGQPASISCRSSQSLVHSNAQTYLYWYQQRPGQSPRLLIYKVSNRFSGVPDRFSGSGSGTDFTLKISRVEAEDVGVYFCSQSTHVPYTFGQGTKLEIKR
notes: Humanized with hotspot correction
B18: Humanized 1-K17.044 (antibody, human IgG1, kappa, V domains shown)
VH: B17 VH with R44G, Q55A, A76T
VL: B17 VL with Q35A
notes: as for B17
B19: 19-O07 (mouse hybridoma antibody) (antibody, human IgG1)
heavy: EVQLQQSVAELVRPGASVKLSCTASGFNIKNTQMHWVKQRPEQGLEWIGRIDPANGNTKYAPKFQGKATITGDTSSNTAYLQLSSLTSEDTAIYYCARFDYYYGSGDYAMDYWGQGTSVTVSSTTTAPSVYPLVPGCSDTSGSSVTLGCLVKGYFPEPVTVKWNYGALSSGVRTVSSVLQSGFYSLSSLVTVPSSTWPSQTVICNVAHPASKTELIKRIEPRIPKPSTPPGSSCPPGNILGGPSVFIFPPKPKDALMISLTPKVTCVVVDVSEDDPDVHVSWFVDNKEVHTAWTQPREAQYNSTFRVVSALPIQHQDWMRGKEFKCKVNNKALPAPIERTISKPKGRAQTPQVYTIPPPREQMSKKKVSLTCLVTNFFSEAISVEWERNGELEQDYKNTPPILDSDGTYFLYSKLTVDTDSWLQGEIFTCSVVHEALHNHHTQKNLSRSP
light: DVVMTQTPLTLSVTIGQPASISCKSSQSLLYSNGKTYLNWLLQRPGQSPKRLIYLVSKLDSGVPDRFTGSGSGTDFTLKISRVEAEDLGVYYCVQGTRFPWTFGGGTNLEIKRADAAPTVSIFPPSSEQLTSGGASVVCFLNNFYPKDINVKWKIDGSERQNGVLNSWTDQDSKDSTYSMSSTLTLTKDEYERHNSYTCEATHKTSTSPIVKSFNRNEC
notes: also called 19-007
B20: 1-K16 (mouse hybridoma antibody) (antibody, mouse IgG1, kappa)
heavy: EVQLVETGGGLVQPKGSLKLSCAASGFTFNINAMNWVRQAPGKGLEWVARIRSKSNNYATYYADSVKDRFTISRDDSQSMLYLQMNNLKTEDTAMYYCVRGGYGSSPYDMDYWGQGTSVTVSSAKTTPPSVYPLAPGSAAQTNSMVTLGCLVKGYFPEPVTVTWNSGSLSSGVHTFPAVLESDLYTLSSSVTVPSSPRPSETVTCNVAHPASSTKVDKKIVPRDCGCKPCICTVPEVSSVFIFPPKPKDVLTITLTPKVTCVVVDISKDDPEVQFSWFVDDVEVHTAQTQPREEQFNSTFRSVSELPIMHQDWLNGKEFKCRVNSAAFPAPIEKTISKTKGRPKAPQVYTIPPPKEQMAKDKVSLTCMITDFFPEDITVEWQWNGQPAENYKNTQPIMNTNGSYFVYSKLNVQKSNWEAGNTFTCSVLHEGLHNHHTEKSLSHSPG
light: DIVMTQAAPSVPVTPGESVSISCRSSKSLLHSNGNTYLYWFLQRPGQSPQLLIYRMSNLASGVPDRFSGSGSGTAFTLRISRVEAEDVGVYYCMQHLEYPFTFGAGTKLELKRADAAPTVSIFPPSSEQLTSGGASVVCFLNNFYPKDINVKWKIDGSERQNGVLNSWTDQDSKDSTYSMSSTLTLTKDEYERHNSYTCEATHKTSTSPIVKSFNRNEC

Tests used:
[1] = target: T2, CCR8-NT.MBP (CCR8 N-terminus peptide aa 1-35 fused with maltose binding protein); assay: ForteBio Octet, antibody captured on AHC biosensors, CCR8-NT.MBP as analyte
[2] = target: T1, Human CCR4 expressed on CHO-S cells; assay: flow cytometry
[3] = target: T3, Human CCR8 (C-C chemokine receptor type 8) expressed on CHO-S cells (human, UniProt P51685 1-355); assay: KinExA, on-cell affinity
T3 construct: also called huCCR8; human CCR8-expressing CHO-S cells
T3 sequence (P51685 whole entry): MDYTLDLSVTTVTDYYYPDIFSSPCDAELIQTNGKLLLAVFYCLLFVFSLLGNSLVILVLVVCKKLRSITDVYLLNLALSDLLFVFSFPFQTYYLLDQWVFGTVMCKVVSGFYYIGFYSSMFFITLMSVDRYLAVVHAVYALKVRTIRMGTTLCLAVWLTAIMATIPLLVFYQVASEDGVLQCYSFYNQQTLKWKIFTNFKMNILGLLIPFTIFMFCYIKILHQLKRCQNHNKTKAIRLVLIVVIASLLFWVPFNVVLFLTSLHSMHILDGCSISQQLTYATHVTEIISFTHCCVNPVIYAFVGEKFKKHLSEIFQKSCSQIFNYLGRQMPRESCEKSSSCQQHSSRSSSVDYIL

[4] = target: T3, Human CCR8 (C-C chemokine receptor type …); assay: cell-based or functional assay
[5] = target: T3, Human CCR8 (C-C chemokine receptor type …); assay: flow cytometry, human CCR8-overexpressing against parental CHO-S cells
Experimental: The first category of variant (single substitution mutation in the CDR H3) included variants in which each amino acid residue of the heavy chain CDR 3 (i.e., , CDR H3) was iteratively substituted with an alanine residue.
CCR8 binding was determined using flow cytometry according to the same methods used in Example 4, Briefly, antibodies were screened for specific binding to human CCR8 by flow cytometry using human CCR8-overexpressing and parental CHO—S cell line. Antibodies specifically binding to human CCR8 were also tested for binding to CCR4 by flow cytometry.

[6] = target: T2, CCR8-NT.MBP (CCR8 N-terminus peptide aa …); assay: ForteBio Octet, antibody at 10 µg/ml captured on AHC biosensors, 300 nM CCR8-NT.MBP as analyte
Description: (amino acids 406-440 of SEQ ID NO: 128), Amino acids 1-364 of SEQ ID NO: 128 represent the maltose binding protein.

[7] = target: T1, Human CCR4 expressed on CHO-S cells; assay: flow cytometry (PE-A), human CCR4-expressing CHO-S cells against parental CHO-S cells; antibody concentration not given

Row | Binder | Octet Response (nm) [1] [nm] | ADCC (Fold Induction) [4] [fold] | Flow (fold over parent) [5] [fold] | Octet (nm shift) [6] [nm] | further results
1 | B1 | 0.299 | – | – | – | –
2 | B2 | – | – | – | – | binding result [2]: no binding; Kd [3]: 0.0159 nM; koff [3]: 7.93e-05 s⁻¹; kon [3]: 4.99e+06 M⁻¹ s⁻¹
3 | B3 | – | 22.9 | 8 | 0.469 | –
4 | B4 | 0.376 | – | – | – | –
5 | B5 | – | 19.5 | 6 | 0.221 | –
6 | B6 | – | 24.8 | 9 | 0.436 | –
7 | B7 | 0.431 | – | – | – | –
8 | B8 | – | 1.36 | 4 | 0.155 | –
9 | B9 | – | 25.9 | 9 | 0.383 | –
10 | B10 | – | 20 | 9 | 0.296 | –
11 | B11 | – | 14.1 | 8 | 0.22 | –
12 | B12 | – | 19.8 | 10 | 0.303 | –
13 | B13 | – | – | – | – | binding result [2]: no binding; Kd [3]: 0.0746 nM; koff [3]: 0.000391 s⁻¹; kon [3]: 5.25e+06 M⁻¹ s⁻¹
14 | B14 | 0.205 | – | – | – | –
15 | B15 | 0.404 | – | – | – | –
16 | B16 | 0.357 | – | – | – | –
17 | B17 | – | – | – | – | binding result [2]: no binding; Kd [3]: 0.0145 nM; koff [3]: 0.000142 s⁻¹; kon [3]: 9.78e+06 M⁻¹ s⁻¹
18 | B18 | – | – | – | – | binding result [2]: no binding; Kd [3]: 0.00805 nM; koff [3]: 6.67e-05 s⁻¹; kon [3]: 8.29e+06 M⁻¹ s⁻¹
19 | B19 | – | – | – | – | binding result [7]: no binding
20 | B20 | – | – | – | – | binding result [7]: no binding
